{"source": "patent US20220168331A1", "about": "“PRR-Activating and MicroRNA-Inhibiting Molecules and Methods of Using Same” (Duke University, priority 2019, published 2022)", "molecules": {"B1": {"name": "RigantmiR-21: nuclease-resistant RNA composed of RIG-I-activating structure ICR4 and a complementary sequence to mature miR-21; SEQ ID NO: 2 (nucleic acid)", "chain": "GGAUGCGGUACCUGACAGCAUCUUGAAAUAAGGACUGAUGCUCAACAUCAGUCUGAUAAGCUA", "modifications": "nuclease-resistant RNA, modifications not given here"}}, "key": {"402230 sarcoma": {"tested_on": "402230 sarcoma", "assay": "Survival of 402230 sarcoma-bearing immunocompetent mice", "format": "in vivo, mouse", "details": "RigantmiR-21 1 mg/kg with jetPEI intratumorally once daily for three days, anti-PD-1 intraperitoneally twice at 7-day interval", "method": "Murine sarcoma 402230 cell line was treated single with RigantmiR-21 ([…]) in complex with liposome. IFN-β production 24 h after treatment (FIG. 12A) and cytotoxicity 72 h after treatment (FIG. 12B) were measured using ELISA and MTT assay, respectively. N=3. 402230 sarcoma-bearing immunocompetent mice were injected intratumorally once daily for three days with RigantmiR-21 (1 mg/kg) in complex with in vivo transfection agent jetPEI, N=5. (FIG. 12C). Sarcoma-bearing mice were also injected intraperitoneally twice at 7-day interval with anti-PD-1. jetPEI alone and jetPEI with isotype control antibody were used as control."}, "[1]": {"tested_on": "mouse pancreatic, adenocarcinoma, and sarcoma cells", "assay": "Antitumor activities in mouse pancreatic cancer and sarcoma cells (overall statements)", "format": "cell-based", "method": "(§1) The antitumor effects of RigantmiR-21 are not limited to melanoma cells. KPC-4839 (mouse pancreatic ductal adenocarcinoma), PANC-02 (mouse pancreatic adenocarcinoma) and mouse sarcoma cell line cells were transfected with indicated ICR4, RigantmiR-21, mutant RigantmiR-21, or anti-miR-21 (0.6 μg/ml) using DharmaFECT (DF). After overnight incubation, IFN-β production by these cells was determined using ELSIA. (n=3). As shown in FIGS. 4A-4C, RigantmiR-21 treatments induced cell death and IFN-β production by mouse pancreatic, adenocarcinoma, and sarcoma cells that are also resistant to RIG-I agonist ICR4."}, "[2]": {"tested_on": "B16-F0 mouse melanoma cells", "assay": "Cytotoxicity (MTT assay) in B16-F0 cells", "format": "cell-based", "details": "two transfections at various concentrations, DharmaFECT, MTT three days after first transfection", "method": "(§2) B16-F0 and B16-F10 mouse melanoma cells lines are originated from the same parental cell line but they have different metastatic ability. B16-F0 cell line has no or marginal metastatic ability but B16-F10 cell line has potent metastatic ability. B16-F0 and B16-F10 cells (1×10^4) were treated with RIG-I agonist ICR4-liposome complex (0.6 μg/ml). After overnight incubation, cytotoxicity and IFN-β production by the cells were measured using MTT assay and ELISA, respectively. […] Tumor suppressor proteins, such as programmed cell death 4 (PDCD4) and phosphatase and tensin homolog (PTEN), and pre-miR-21 levels in B16-F0 and B16-F10 cells were measured using real-time qPCR. […] It was hypothisized that miR-21 would interfere with antitumor effects of RIG-I agonists in B16-F10 melanoma cells.\nB16-F0 mouse melanoma cells were transfected with ICR4, RigantmiR-21, mutant RigantmiR-21, or anti-miR-21 at various concentrations using DharmaFECT (DF). After overnight incubation, the cells were replenished with fresh culture media, followed by another transfection with the same dose of RNAs. Three days after the first transfection, cytotoxicity levels were measured using MTT assay."}, "[3]": {"tested_on": "mouse sarcoma cell line cells", "assay": "IFN-β production and cell death in mouse sarcoma cell line", "format": "cell-based", "details": "0.6 μg/ml, DharmaFECT", "method": "as §1"}, "[4]": {"tested_on": "PANC-02 (mouse pancreatic adenocarcinoma)", "assay": "IFN-β production and cell death in PANC-02 cells", "format": "cell-based", "details": "0.6 μg/ml, DharmaFECT", "method": "as §1"}, "miR-21": {"tested_on": "miR-21", "assay": "Expression of premiR-21 and miR-21 target genes (qPCR) in B16-F10 melanoma cells", "format": "cell-based, mouse", "details": "0.6 μg/ml, DharmaFECT", "method": "(§3) To improve therapeutic effects of RIG-I agonists in B16-F10 cells, we designed and generated a novel RIG-I-activating RNA molecule (named RigantmiR-21) that is composed of a RIG-I-activating RNA structure (ICR4: 5′ppp-containg double stem-loop RNA) and a complementary sequence to mature miR-21. B16-F10 melanoma cells were transfected once or twice with RigantmiR-21, mutant RigantmiR-21, anti-miR-21, or ICR4 (0.6 μg/ml) using liposomal transfection agent DharmaFECT (DF). The expression of miR-21 target genes was determined using qPCR. IFN-β production was determined using ELISA. […] Anti-miR-21, ICR4, and RigantmiR-21 RNAs were complexed with in vivo transfection agent jet-PEI. Jet-PEI alone or RNA-jet-PEI complexes (25 μg) were injected thrice intratumorally into B16-F10 melanoma-bearing immunocompetent mice. (n=6)."}, "[5]": {"tested_on": "4T1 mouse breast cancer cells, B16-F10 mouse melanoma cells, 403688 mouse sarcoma cells, and WM266.4 human melanoma cells", "assay": "IFN-β production (ELISA) by different cancer cells after first and second transfection with RIG-I agonists", "format": "cell-based", "details": "DharmaFECT, one day after first and second transfection; FIG. 11", "method": "4T1 mouse breast cancer cells, B16-F10 mouse melanoma cells, 403688 mouse sarcoma cells, and WM266.4 human melanoma cells were transfected with indicated RIG-I agonists using liposomal transfection agent DharmaFECT (DF). After overnight incubation, the cells was replenished with fresh culture media, followed by another transfection with the same RIG-I agonists. One day after first and second transfection IFN-β production by these cells were determined using ELSIA."}, "B16-F10 melanoma": {"tested_on": "B16-F10 melanoma", "assay": "Survival of B16-F10 melanoma-bearing immunocompetent mice after intratumoral RNA-jet-PEI injections", "format": "in vivo, mouse", "details": "RNA-jet-PEI complexes 25 μg injected thrice intratumorally", "method": "as §3"}, "[6]": {"tested_on": "KPC-4839 (mouse pancreatic ductal adenocarcinoma)", "assay": "IFN-β production and cell death in KPC-4839 cells", "format": "cell-based", "details": "0.6 μg/ml, DharmaFECT", "method": "as §1"}, "[7]": {"tested_on": "B16-F0 mouse melanoma cells", "assay": "IFN-β production (ELISA) by B16-F0 cells", "format": "cell-based", "details": "12.5 nM, DharmaFECT, one day after first and second transfection, ELISA", "method": "as §2\nB16-F0 mouse melanoma cells were transfected with ICR4, RigantmiR-21, mutant RigantmiR-21, or anti-miR-21 at 12.5 nM using DharmaFECT (DF). After overnight incubation, the cells were replenished with fresh culture media, followed by another transfection with the same dose of RNAs. One day after the first and second transfection, IFN-β production by these cells were determined using ELSIA.\nB16-F0 mouse melanoma cells or bone marrow-derived dendritic cells (BM-DCs) were transfected once (x1) or twice (x2) with a complex of polyI:C (pIC) (0.6 μg/ml) and transfection agent jet-PEI. IFN-β production by the cells one day after each transfection was determined using ELISA."}, "Mouse macrophage cells": {"tested_on": "Mouse macrophage cells", "assay": "IFN-β production by macrophages re-treated with PRR agonists with or without 1-MT and CH223191", "format": "cell-based", "details": "re-treatment with the same agonist in presence of mixture of 1-MT and CH223191; FIG. 10", "method": "Mouse macrophage cells were treated with MDA5 agonists (pIC-HMW and pIC-LMW), RIG-I agonists (ICR4 and RigantmiR-21), and STING agonists (2′3′-cGAMP and c-di-GMP). After overnight incubation, the cells were replenished with fresh culture media and treated with the same agonists in the presence or absence of a mixture of 1-MT and CH223191. (n=3)."}, "[8]": {"tested_on": "B16-F10 mouse melanoma cells", "assay": "IFN-β production (ELISA) by B16-F10 cells", "format": "cell-based", "details": "transfected once or twice, 0.6 μg/ml, DharmaFECT, ELISA", "method": "as §2, §3\nAdditionally, conjugation of anti-miR-21 improved the ability of other types of RIG-I agonists, such as ICR2 and ICR2AS^4 (sequences shown in FIG. 6A) to induce IFN-β production by cancer cells."}}, "note": "Entries after “also recorded” stand apart in the source; their conditions may differ."}
{"molecule": "B1", "values": [{"measurement": "survival, RigantmiR-21 and anti-PD-1 antibody compared to RigantmiR-21 alone", "setting": "402230 sarcoma", "value": "significantly improved survival"}, {"measurement": "survival, RigantmiR-21 and anti-PD-1 antibody compared to RigantmiR-21 alone", "setting": "402230 sarcoma; listed as RignatmiR-21", "value": "synergizes"}, {"measurement": "antitumor activities relative to MDA5 agonist polyI:C", "setting": "[1]; FIGS. 4A-4C", "value": "comparable"}, {"measurement": "IFN-β production by mouse pancreatic cancer cells and sarcoma", "setting": "[1]; figure legend FIGS. 4A-4C", "value": "improves"}, {"measurement": "cytotoxic effects after repeated treatments", "setting": "[2]", "value": "gradually augmented; also recorded: significantly increased"}, {"measurement": "cell death", "setting": "[3]", "value": "induced"}, {"measurement": "IFN-β production", "setting": "[3]; overnight, ELISA", "value": "induced"}, {"measurement": "cell death", "setting": "[4]", "value": "induced"}, {"measurement": "IFN-β production", "setting": "[4]; overnight, ELISA", "value": "induced"}, {"measurement": "expression of premiR-21", "setting": "miR-21", "value": "inhibited"}, {"measurement": "miR-21 target gene (PTEN) expression", "setting": "miR-21", "value": "upregulated"}, {"measurement": "IFN-β production by different cancer cells", "setting": "[5]", "value": "differentially induce"}, {"measurement": "survival compared to repeated injections with ICR4 or anti-miR-21", "setting": "B16-F10 melanoma", "value": "significantly improved the survival"}, {"measurement": "cell death", "setting": "[6]", "value": "induced"}, {"measurement": "IFN-β production", "setting": "[6]; overnight, ELISA", "value": "induced"}, {"measurement": "IFN-β production after first and second transfection", "setting": "[7]", "value": "incremental; also recorded: significantly increased"}, {"measurement": "IFN-β production after first and second transfection", "setting": "[7]; listed as RignatmiR-21", "value": "gradually increase"}, {"measurement": "IFN-β production with IDO inhibitor and AHR inhibitor co-treatment compared to PRR agonist alone", "setting": "Mouse macrophage cells", "value": "enhanced"}, {"measurement": "IFN-β production compared to ICR4 and mutant RigantmiR-21", "setting": "[8]", "value": "significantly increased"}]}
